These results are taken from patent US20220242973A1 (Molecular Partners, published 2022).

Some results are limits rather than exact numbers.

The target of assay [1] is T1, Human FAP expressed on the cell surface (WI38, CHO-FAP1.9, U87MG cells) (human, UniProt Q12884 1-760).
T1 construct: whole, on cells; Endogenous on WI38 and U87MG cells; from a human FAP cDNA (OriGene) in CHO-FAP1.9 cells; also called hFAP; FAP+ cells
T1 sequence (looked up): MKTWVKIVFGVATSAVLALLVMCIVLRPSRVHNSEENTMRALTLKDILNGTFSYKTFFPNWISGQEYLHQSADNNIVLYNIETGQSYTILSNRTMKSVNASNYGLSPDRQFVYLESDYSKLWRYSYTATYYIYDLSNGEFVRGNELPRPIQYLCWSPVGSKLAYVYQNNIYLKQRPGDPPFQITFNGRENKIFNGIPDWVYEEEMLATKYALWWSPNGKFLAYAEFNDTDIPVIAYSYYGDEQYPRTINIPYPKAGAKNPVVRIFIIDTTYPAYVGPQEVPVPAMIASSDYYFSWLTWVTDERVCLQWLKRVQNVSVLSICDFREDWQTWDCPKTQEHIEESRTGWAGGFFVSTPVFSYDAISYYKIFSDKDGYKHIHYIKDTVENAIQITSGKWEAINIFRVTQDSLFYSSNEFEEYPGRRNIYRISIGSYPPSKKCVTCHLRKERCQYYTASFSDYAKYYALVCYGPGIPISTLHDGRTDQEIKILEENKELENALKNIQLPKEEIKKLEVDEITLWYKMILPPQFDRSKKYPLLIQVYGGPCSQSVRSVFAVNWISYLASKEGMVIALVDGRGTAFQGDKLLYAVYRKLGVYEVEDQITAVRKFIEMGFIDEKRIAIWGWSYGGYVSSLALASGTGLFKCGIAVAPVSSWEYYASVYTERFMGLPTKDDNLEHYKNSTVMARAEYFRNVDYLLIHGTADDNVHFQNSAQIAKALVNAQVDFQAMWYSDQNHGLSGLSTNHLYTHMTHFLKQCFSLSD
The assay can be described thus: FACS on FAP-expressing WI38 cells, Penta-His AF647 detection. How it is done:
Using multi-well plates, 20,000 WI38 cells were added per well in 50 μl of PBS. 50 μl of appropriate dilutions (2× dilution steps) of ankyrin repeat protein was then added to the cells and incubated for 30 minutes on ice. After the ankyrin repeat protein-binding reaction, cells were washed twice with PBS. Direct immunofluorescent detection of the His-tagged ankyrin repeat proteins using Penta-His AF647 conjugate (QIAgen) and determination of live cells using LIVE/DEAD™ Fixable Green Dead Cell Stain Kit (ThermoFisher) were then performed together in one step. The Penta-His AF647 conjugate and the LIVE/DEAD™ Fixable Green dye were applied to the cells together in 1/200 (Penta-His) and 1/1000 (LID Fixable) final dilutions and incubated for 20-30 minutes on ice. After washing the cells with PBS, cells were re-suspended in 1× CellFix™ buffer (BD Biosciences) (10× stock was diluted 1/10 in water). The samples were incubated in CellFix™ buffer for 15-20 minutes at RT, then spun down at 400 g for 5 min. Supernatant was discarded and cells were re-suspended in 200 μl PBS and stored at 4° C. until acquisition and FACS analysis. Acquisition and FACS analysis, including the determination of median fluorescence intensity (MFI), were done within 5 days after staining using an AttuneNxT instrument. Binding curves were fitted by non-linear regression curve fitting using GraphPad Prism software (v 7.0.4).
EC₅₀ values were determined using standard procedures known to the person skilled in the art. […] Table 2 provides the EC₅₀ values of selected ankyrin repeat proteins as examples.

Assay [2] has as its target T2, Recombinant human FAP (fibroblast activation protein) (human, UniProt Q12884 26-760).
T2 construct: Bought soluble recombinant protein; Chemically biotinylated for the HTRF screen; also called hFAP; biotinylated human FAP
T2 sequence (looked up): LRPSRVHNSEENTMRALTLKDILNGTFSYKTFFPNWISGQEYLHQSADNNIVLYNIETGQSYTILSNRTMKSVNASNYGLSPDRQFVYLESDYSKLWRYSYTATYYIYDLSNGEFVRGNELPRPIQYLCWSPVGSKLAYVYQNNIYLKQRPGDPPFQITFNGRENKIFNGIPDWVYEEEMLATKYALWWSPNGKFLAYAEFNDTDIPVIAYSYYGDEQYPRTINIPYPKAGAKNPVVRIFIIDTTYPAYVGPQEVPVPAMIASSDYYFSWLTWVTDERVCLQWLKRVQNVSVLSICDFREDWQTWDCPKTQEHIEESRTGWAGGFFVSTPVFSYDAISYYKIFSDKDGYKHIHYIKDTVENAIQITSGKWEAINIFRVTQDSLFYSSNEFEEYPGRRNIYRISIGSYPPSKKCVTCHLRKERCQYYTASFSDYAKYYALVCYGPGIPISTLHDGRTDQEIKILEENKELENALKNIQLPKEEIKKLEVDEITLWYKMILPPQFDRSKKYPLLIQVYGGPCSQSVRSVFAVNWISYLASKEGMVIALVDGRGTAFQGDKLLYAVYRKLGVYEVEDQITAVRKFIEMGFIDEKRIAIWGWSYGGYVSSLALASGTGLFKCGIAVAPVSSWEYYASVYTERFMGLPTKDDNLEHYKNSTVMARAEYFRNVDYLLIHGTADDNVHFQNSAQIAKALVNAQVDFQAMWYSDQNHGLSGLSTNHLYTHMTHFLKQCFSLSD
Briefly: SPR (ProteOn), human FAP immobilized on GLC chip. The procedure:
Briefly, human FAP was diluted in 10 mM Na-acetate pH 5.3 buffer and covalently immobilized on a GLC chip (BioRad) to a level of around 2000 resonance units (RU). The interaction of ankyrin repeat protein and hFAP was then measured by injecting 200 μl running buffer (PBS, pH 7.4 containing 0.005% Tween 20®) containing serial dilutions of ankyrin repeat proteins covering a concentration range between 30 nM and 0.5 nM (on-rate measurement), followed by a running buffer flow for at least 25 minutes at a constant flow rate of 100 μl/min (off-rate measurement). The regeneration was performed using 15 μl of 10 mM Glycine pH 2 followed by 15 μl of 124 mM H₃PO₄. The signals (i.e. resonance unit (RU) values) of the interspots and a reference injection (i.e. injection of running buffer only) were subtracted from the RU traces obtained after injection of ankyrin repeat protein (double-referencing). Based on the SPR traces obtained from the on-rate and off-rate measurements, the on- and off-rate of the corresponding ankyrin repeat protein—FAP interaction was determined.
Dissociation constants (KD) were calculated from the estimated on- and off-rates using standard procedures known to the person skilled in the art. […] Table 1 provides the KD values of some selected ankyrin repeat proteins as examples.

Assay [3] has as its target T2, Recombinant human FAP (fibroblast …). Briefly: cell-based or functional assay.

B1: DARPin® protein #24 (designed binder)
chain: MRGSHHHHHHGSYPYDVPDYAGSDLGEKLLEAARRGQDDEVRELLKAGADVNAKDRYGITPLHLAAFLGHLEIVEVLLKDGADVNAKDEWGATPLHVAAYKGHLEIVEVLLKAGADVNAQDLYGKTPADLAAEQGHEDIEEVLQKLN
For orientation: EC50 means the concentration giving half of the maximal effect. Lower therefore signals higher potency in that assay. By Kd is commonly meant the concentration at which binding is half-saturated. Take B1: in assay [1], the EC50 turned out to be 4.49 nM. Also, the Kd in assay [2] worked out at 1.47 nM. Further, the “FAP activity (%)” value in assay [3] worked out at 102%.

B2: DARPin® protein #2 (designed binder)
chain: MRGSHHHHHHGSYPYDVPDYAGSDLGKKLLEAARAGQDDEVRILLAAGADINAKDKYGVTPLHLAAWAGHLEIVEVLLKAGADVNAKDQSGFTPLHLAAHRGHLEIVEVLLKAGADVNAKDYRGFTPLHLAAEDGHLEIVEVLLKAGADVNAQDKSGKTPADLAADAGHEDIAEVLQKLN
In turn, B2 yielded an EC50 in assay [1] of 5.26 nM. Moreover, the Kd in assay [2] was 8.24 nM. Besides, the “FAP activity (%)” value in assay [3] was 117%.

B3: DARPin® protein #21 (designed binder)
chain: MRGSHHHHHHGSYPYDVPDYAGSDLGQKLLNAAFIGQDDEVRILLAAGAGVNAKDRHGHTPLHVTAHHGHLEIVEVLLKAGTDVNAKDNQGNTPLHVAAEADHLEIVEVLLKAGADVNAQDAHGRTPADLAAQLGHEDIAEVLQKLN
Take B3: the EC50 in assay [1] stood at 2.19 nM. Moreover, the Kd in assay [2] came to 0.885 nM. For the same molecule, the “FAP activity (%)” value in assay [3] worked out at 108%.

B4: DARPin® protein #14 (designed binder)
chain: MRGSHHHHHHGSYPYDVPDYAGSDLGKKLLEAARAGQDDEVRILLAAGADVNAKDYSGRTPLHLAALTGHLEIVKVLLKHGADVNASDDYGITPLHLDAFIGHLEIVEVLLKNGADVNAMDYQGRTPLHPAAYTGHLEIVEVLLKYGADVNAQDKFGKTAFDISIDNGNEDLAEILQKLN
In turn, B4 showed an EC50 in assay [1] of 0.246 nM. Moreover, in assay [2], the Kd worked out at 0.007 nM. Besides, the “FAP activity (%)” value in assay [3] was found to be 86%.

B5: DARPin® protein #15 (designed binder)
chain: MRGSHHHHHHGSYPYDVPDYAGSDLGKKLLEAARAGQDDEVRILMANGADVNAFDAIGRTPLHLAALYGHLEIVEVLLKHVADVNATDEYGITPLHLAAFMGHLEIVEVLLKYGADVNAIDFDGRTPLHPAAYRGHLEIVEVLLKHGADVNAQDKFGKTAFDISIDNGNEDLAEILQKLN
Molecule B5 displayed a concentration giving a half-maximal response (EC50) in assay [1] of 0.33 nM. Further, in assay [2], the Kd was below 0.01 nM. Also, the “FAP activity (%)” value in assay [3] is 93%.

B6: DARPin® protein #29 (designed binder)
chain: MRGSHHHHHHGSYPYDVPDYAGSDLGKKLLEAARAGQDDEVRELLKAGADVNAKDTIGRTPLHIAARYGHLEIVEVLLKAGADVNAKDVYDITPLHLAAFLGHLEIVEVLLKAGADVNAKDYEGTTPLHVAAWHGHLEIVEVLLKAGADVNAQDKSGKTPADLAADAGHEDIAEVLQKLN
As for B6, in assay [1], a half-maximal effect (EC50) was put at 1.13 nM. Besides, in assay [2], the dissociation constant Kd was found to be 0.255 nM. Further, the “FAP activity (%)” value in assay [3] was found to be 109%.

B7: DARPin® protein #22 (designed binder)
chain: MRGSHHHHHHGSYPYDVPDYAGSDLGDKLLTAANYGQDDEVRILLAAGADVNAKDRFGHTPLHVAAHFGHLEIVEVLLKAGADVNAKDSLGHTPLHLAAEAGHLEIVEVLLKAGADVNAQDFHGITPADLAAHQGHEDIAEVLQKLN
Turning to B7, the EC50 in assay [1] amounted to 1.22 nM. Also, the Kd in assay [2] worked out at 3.4 nM. Also, the “FAP activity (%)” value in assay [3] turned out to be 100%.

B8: DARPin® protein #23 (designed binder)
chain: MRGSHHHHHHGSYPYDVPDYAGSDLGLKLLSAAQVGQDDEVRILLAAGADVNVKDQFGHTPLHVATHFGHLEIVEVLLKAGADVNAKDALGHTPLHLAAEAGHLEIVEVLLKAGADVNAQDAHGRTPADLAAQLGHEDIAEVLQKLN
B8 showed an EC50 in assay [1] of 1.82 nM. Moreover, the Kd in assay [2] stood at 2.78 nM. Moreover, the “FAP activity (%)” value in assay [3] was 100%.

B9: DARPin® protein #7 (designed binder)
chain: MRGSHHHHHHGSYPYDVPDYAGSDLGKKLLEAARAGQDDEVRELLKAGADVNAKDEWGKTPLHLAAALGHLEIVEVLLKAGADVNAKDAWGATPLHVAAFAGHLEIVEVLLKAGADVNAKDTIGFTPLHLAAHSGHLEIVEVLLKAGADVNAQDKSGKTPADLAADAGHEDIVEVLQKLN
For B9, the midpoint of the response in assay [1], the EC50, lay at 1.45 nM. Further, the Kd in assay [2] is 0.744 nM. For the same molecule, the “FAP activity (%)” value in assay [3] was 123%.

B10: DARPin® protein #32 (designed binder)
chain: MRGSHHHHHHGSYPYDVPDYAGSDLGKKLLEAARAGQDDEVRELLKAGADVNAKDEWDKTPLHLAAALDHLEIVEVLLKAGADVNAKDQYGATPLHVAAFAGHLEIVEVLLKAGADVNAKDLFGWTPLHLAALRGHLEIVEVLLKAGADVNAQDKSGKTPADLAADAGHEDIVEVLQKLN
As to B10, in assay [1], the EC50 is 0.918 nM. The Kd in assay [2] turned out to be 0.527 nM. Also, in assay [3], the “FAP activity (%)” value amounted to 138%.

B11: DARPin® protein #28 (designed binder)
chain: MRGSHHHHHHGSYPYDVPDYAGSDLGKKLLEAARAGQDDEVRELLKAGADVNAKDEWGKTPLHYAAALGHLEIVEVLLKAGADVNAKDRWGATPLHIAAFAGHLEIVEVLLKAGADVNAKDEVGWTPLHLAARSGHLEIVEVLLKVGADVNAQDKSGKTPADLAADAGHEDIVEVLQKLN
Molecule B11 returned an EC50 in assay [1] of 0.781 nM. Besides, in assay [2], the Kd came to 0.15 nM. The “FAP activity (%)” value in assay [3] came out at 103%.

B12: DARPin® protein #27 (designed binder)
chain: MRGSHHHHHHGSYPYDVPDYAGSDLGKKLLEAARAGQDDEVRELLKAGADVNAKDEWDKTPLHYAAALGHLEIVEVLLKAGADVNAKDVWGATPLHIAAFAGHLEIVEVLLKAGADVNAKDTLGYTPLHLAATRGHLEIVEALLKAGADVNAQDKSGKTPADLAADVGHEDIAEVLQKLN
For B12, in assay [1], the response was half-maximal at 0.664 nM (EC50). Moreover, the Kd in assay [2] is 0.441 nM. In addition, the “FAP activity (%)” value in assay [3] was 110%.
